Reference: article PMC12089306
One block for each substance: values may come before it.

Molecular target: TEAD4 (UniProt Q15561)
Test: co-immunoprecipitation
Conditions: reference: wild type SP1

binding against the reference (sites S670): weaker
Substance: SP1 (from UniProt P08047) S670 single mutant

binding against the reference (sites T668): weaker
Substance: SP1 (from UniProt P08047) T668 single mutant

binding against the reference (sites T681): weaker
Substance: SP1 (from UniProt P08047) T681 single mutant
